In patent US20170129954A1 (PROTHENA BIOSCIENCES, published 2017):

How the values were obtained:
[1] = molecular target: T1, human MCAM (antigen of the BLI kinetics in Example 7) (human, UniProt P43121 24-559, limits assumed); assay: BLI, ForteBio Octet QK, apparent ka
T1 chain: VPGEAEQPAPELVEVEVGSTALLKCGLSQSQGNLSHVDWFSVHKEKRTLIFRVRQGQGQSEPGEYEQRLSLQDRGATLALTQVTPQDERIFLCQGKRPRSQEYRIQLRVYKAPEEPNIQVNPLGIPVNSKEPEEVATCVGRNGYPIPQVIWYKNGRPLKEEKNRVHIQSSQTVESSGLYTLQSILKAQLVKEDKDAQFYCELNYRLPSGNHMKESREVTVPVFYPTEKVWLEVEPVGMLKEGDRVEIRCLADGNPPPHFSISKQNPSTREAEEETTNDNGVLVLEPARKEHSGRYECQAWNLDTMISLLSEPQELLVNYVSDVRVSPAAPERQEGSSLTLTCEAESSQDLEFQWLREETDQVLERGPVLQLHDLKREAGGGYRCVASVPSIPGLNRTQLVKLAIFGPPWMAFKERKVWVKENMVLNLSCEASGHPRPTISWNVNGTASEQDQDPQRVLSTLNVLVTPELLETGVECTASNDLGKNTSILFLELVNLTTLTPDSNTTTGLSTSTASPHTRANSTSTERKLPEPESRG
Description: Apparent ka, apparent kd and apparent KD are binding kinetic parameters obtained using ForteBio assay formats.

[2] = molecular target: T2, human MCAM domain 1 (amino acids 19-129) hFc (human, UniProt P43121 19-129); assay: ForteBio BLI, MCAMhFc domains on anti-human IgG Fc biosensors
T2 construct: One of the various MCAMhFc domains captured on anti-human IgG Fc biosensors; also called MCAMhFc domain; not shown: human IgG Fc (hFc)
T2 sequence: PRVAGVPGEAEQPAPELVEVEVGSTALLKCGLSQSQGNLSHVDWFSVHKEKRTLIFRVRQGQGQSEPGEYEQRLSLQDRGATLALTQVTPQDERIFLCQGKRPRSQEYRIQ
Description: The following protocol was used: ForteBio anti-human IgG Fc biosensors were used to immobilize various MCAMhFc domains including full length MCAMhFc protein on to biosensor surface. […] After loading these samples into a black 96 well plate, the Octet Red was programmed as follows: 60 seconds for baseline #1; 180 seconds for loading various domains; 60 seconds for baseline #2; 180 seconds for association of antibody to domain; and 240 seconds for dissociation of antibody from domain.
1. MCAMhFc final concentration @ 5 ug/ml [0329] […] 3. ForteBio anti-human IgG Fc Capture (AHC) biosensors for kinetics experiments, cat #18-5060 [0331] 4. Block 96 well plate from Greiner Bio-one, cat #655209 [0332] 5. ForteBio Octet Red machine [0333] 6. Fresh tissue culture medium, DMEM with 20% FCS, was used as buffer for dilution The results from these analyses are as follows.

B1: mouse anti-human MCAM monoclonal antibody clone 1749.1.3 (antibody, V domains shown)
VH: DVKLVESGGDLVKPGGSLKLSCAASGFTFSSYIMSWVRQTPEKRLEWVATISSGGSSTYYPDSVKGRFTISRDNAKNTLYLQMSSLKSEDTAMYYCTRDDDYDVKVFAYWGQGTLVTVSA
VL: DIVMSQSPSSLAVSAGEKVTMNCKSSRSLLNSRIRKNYLAWYQQKPGQSPKLLIYWASTRESGVPDRFTGSGSGTDFTLTISSVQAEDLAVYYCKQSYNLLTFGAGTKLELK
notes: Mouse hybridoma monoclonal antibody; also called m1749
[1]
  kon: 1.41e+06 M⁻¹ s⁻¹
[2]
  binding result: no binding (tested: 5 ug/ml)
